Experimental data as given in IntAct's records for PubMed 15207857.

B1: Glutamate receptor ionotropic, delta-2 (Mus musculus), Q61625 (parent)
chain: MEVFPLLLFLSFCWSRTWDLATADSIIHIGAIFDESAKKDDEVFRTAVGDLNQNEEILQTEKITFSVTFVDGNNPFQAVQEACELMNQGILALVSSIGCTSAGSLQSLADAMHIPHLFIQRSTAGTPRSGCGLTRSNRNDDYTLSVRPPVYLNEVILRVVTEYAWQKFIIFYDSEYDIRGIQEFLDKVSQQGMDVALQKVENNINKMITTLFDTMRIEELNRYRDTLRRAILVMNPATAKSFISEVVETNLVAFDCHWIIINEEINDVDVQELVRRSIGRLTIIRQTFPVPQNISQRCFRGNHRISSSLCDPKDPFAQNMEISNLYIYDTVLLLANAFHKKLEDRKWHSMASLSCIRKNSKPWQGGRSMLETIKKGGVNGLTGDLEFGENGGNPNVHFEILGTNYGEELGRGVRKLGCWNPVTGLNGSLTDKKLENNMRGVVLRVVTVLEEPFVMVSENVLGKPKKYQGFSIDVLDALSNYLGFNYEIYVAPDHKYGSPQEDGTWNGLVGELVFKRADIGISALTITPDRENVVDFTTRYMDYSVGVLLRRAEKTVDMFACLAPFDLSLWACIAGTVLLVGLLVYLLNWLNPPRLQMGSMTSTTLYNSMWFVYGSFVQQGGEVPYTTLATRMMMGAWWLFALIVISSYTANLAAFLTITRIESSIQSLQDLSKQTDIPYGTVLDSAVYQHVRMKGLNPFERDSMYSQMWRMINRSNGSENNVLESQAGIQKVKYGNYAFVWDAAVLEYVAINDPDCSFYTVGNTVADRGYGIALQHGSPYRDVFSQRILELQQSGDMDILKHKWWPKNGQCDLYSSVDAKQKGGALDIKSLAGVFCILAAGIVLSCLIAVLETWWSRRKGSRVPSKEDDKEIDLEHLHRRVNSLCTDDDSPHKQFSTSSIDLTPLDIDTLPTRQALEQISDFRNTHITTTTFIPEQIQTLSRTLSAKAASGFAFGSVPEHRTGPFRHRAPNGGFFRSPIKTMSSIPYQPTPTLGLNLGNDPDRGTSI
B2: Glutamate receptor ionotropic, delta-2 (Mus musculus), Q61625 (parent)
chain: B1 chain
partner: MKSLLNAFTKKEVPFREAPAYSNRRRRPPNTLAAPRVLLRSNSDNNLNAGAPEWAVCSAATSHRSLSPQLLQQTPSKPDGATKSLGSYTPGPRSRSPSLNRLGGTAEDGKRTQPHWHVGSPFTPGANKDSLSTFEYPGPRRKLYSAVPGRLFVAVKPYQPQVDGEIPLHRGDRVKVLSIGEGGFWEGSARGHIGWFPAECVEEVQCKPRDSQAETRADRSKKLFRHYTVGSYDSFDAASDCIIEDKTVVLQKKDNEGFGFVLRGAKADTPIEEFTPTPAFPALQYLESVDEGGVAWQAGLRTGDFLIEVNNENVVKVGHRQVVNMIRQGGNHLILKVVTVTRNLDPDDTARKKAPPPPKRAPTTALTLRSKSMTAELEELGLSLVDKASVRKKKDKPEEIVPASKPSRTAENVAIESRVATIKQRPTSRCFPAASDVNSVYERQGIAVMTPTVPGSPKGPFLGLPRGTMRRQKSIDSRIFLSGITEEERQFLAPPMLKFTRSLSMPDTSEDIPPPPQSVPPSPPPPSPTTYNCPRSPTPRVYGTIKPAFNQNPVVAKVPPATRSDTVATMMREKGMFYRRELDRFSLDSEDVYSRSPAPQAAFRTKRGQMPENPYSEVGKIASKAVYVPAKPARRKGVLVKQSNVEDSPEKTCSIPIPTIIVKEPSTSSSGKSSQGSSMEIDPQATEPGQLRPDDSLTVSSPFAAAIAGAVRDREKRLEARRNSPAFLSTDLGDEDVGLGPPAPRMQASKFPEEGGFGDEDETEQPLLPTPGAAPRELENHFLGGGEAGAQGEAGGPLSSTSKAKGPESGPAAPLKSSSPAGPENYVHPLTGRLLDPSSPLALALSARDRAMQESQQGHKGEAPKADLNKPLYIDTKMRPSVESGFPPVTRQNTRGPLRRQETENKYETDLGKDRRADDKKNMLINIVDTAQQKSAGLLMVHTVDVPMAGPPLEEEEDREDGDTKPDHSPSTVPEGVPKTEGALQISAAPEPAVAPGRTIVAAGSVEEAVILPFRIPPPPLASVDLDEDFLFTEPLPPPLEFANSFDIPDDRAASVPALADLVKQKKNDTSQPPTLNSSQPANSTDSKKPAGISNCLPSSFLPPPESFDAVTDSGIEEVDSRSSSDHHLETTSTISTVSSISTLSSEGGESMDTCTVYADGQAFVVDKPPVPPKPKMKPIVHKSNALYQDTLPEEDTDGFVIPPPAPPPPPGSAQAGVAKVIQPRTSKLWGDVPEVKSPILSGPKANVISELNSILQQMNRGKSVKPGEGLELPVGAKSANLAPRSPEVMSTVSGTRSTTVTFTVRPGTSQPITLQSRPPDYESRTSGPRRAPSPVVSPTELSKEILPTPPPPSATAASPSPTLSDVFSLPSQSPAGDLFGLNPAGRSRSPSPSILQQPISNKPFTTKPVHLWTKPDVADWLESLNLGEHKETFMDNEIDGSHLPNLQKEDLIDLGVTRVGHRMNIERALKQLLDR

Variants of: B1
Conditions: with shan1_rat Shank1, Q9WV48
Sequence of shan1_rat Shank1, Q9WV48 (Q9WV48 whole entry): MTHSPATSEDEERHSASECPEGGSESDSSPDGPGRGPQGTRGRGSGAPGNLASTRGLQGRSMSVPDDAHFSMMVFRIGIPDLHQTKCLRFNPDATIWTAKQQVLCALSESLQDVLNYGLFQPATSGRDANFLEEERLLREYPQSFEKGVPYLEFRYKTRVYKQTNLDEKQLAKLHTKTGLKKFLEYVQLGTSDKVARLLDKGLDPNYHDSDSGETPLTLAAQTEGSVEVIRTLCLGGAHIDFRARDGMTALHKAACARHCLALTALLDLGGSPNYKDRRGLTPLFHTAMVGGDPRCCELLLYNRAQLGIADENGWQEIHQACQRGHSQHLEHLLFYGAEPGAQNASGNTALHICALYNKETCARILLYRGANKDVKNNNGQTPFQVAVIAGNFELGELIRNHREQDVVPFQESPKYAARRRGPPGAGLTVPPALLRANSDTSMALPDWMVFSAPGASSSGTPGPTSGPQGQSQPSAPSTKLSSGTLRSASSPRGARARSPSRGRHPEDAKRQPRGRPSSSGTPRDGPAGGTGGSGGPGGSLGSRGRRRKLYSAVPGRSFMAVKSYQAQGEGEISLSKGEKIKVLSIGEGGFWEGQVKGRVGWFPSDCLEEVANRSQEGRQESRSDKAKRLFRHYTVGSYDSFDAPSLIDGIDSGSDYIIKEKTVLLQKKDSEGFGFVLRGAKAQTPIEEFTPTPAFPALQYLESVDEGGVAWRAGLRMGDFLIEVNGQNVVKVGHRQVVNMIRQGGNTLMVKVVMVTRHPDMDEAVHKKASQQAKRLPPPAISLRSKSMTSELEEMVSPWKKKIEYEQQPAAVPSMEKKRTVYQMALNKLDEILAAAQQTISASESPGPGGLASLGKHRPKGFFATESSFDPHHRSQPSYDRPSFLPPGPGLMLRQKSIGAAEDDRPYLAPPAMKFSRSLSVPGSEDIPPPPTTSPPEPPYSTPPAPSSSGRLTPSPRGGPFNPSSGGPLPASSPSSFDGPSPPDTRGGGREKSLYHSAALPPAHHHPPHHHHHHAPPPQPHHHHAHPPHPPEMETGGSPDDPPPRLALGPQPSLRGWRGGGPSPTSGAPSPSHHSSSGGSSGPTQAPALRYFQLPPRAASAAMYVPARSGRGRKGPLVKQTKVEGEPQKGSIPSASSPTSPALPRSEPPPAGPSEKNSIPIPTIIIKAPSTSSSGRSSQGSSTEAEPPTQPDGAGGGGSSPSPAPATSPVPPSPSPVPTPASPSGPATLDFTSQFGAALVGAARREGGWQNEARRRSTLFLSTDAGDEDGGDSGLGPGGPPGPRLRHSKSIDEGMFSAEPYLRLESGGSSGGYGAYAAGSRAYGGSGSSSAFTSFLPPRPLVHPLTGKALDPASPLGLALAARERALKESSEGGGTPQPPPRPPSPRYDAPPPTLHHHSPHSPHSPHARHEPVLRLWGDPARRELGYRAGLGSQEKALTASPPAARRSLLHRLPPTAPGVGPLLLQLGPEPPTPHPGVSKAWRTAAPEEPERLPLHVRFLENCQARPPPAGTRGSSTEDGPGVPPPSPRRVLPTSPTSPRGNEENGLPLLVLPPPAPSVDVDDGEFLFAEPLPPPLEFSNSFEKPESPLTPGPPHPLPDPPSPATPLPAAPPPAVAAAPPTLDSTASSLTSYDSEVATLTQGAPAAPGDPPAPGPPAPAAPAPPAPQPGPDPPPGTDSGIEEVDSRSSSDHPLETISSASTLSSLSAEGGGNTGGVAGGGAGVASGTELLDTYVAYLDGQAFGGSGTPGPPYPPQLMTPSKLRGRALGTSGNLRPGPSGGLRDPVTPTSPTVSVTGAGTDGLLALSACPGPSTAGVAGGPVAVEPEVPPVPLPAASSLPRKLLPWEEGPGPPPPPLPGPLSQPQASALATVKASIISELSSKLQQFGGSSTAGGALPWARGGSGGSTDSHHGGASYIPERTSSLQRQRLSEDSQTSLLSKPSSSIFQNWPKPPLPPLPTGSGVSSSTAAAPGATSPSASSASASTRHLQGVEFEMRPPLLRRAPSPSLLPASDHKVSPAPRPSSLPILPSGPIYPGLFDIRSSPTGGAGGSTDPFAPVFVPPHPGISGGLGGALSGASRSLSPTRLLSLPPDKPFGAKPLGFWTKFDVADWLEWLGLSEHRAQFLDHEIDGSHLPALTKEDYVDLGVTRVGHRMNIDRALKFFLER

Row | Variant | effect of a mutation on the interaction
1 | S920A | disrupting interaction
2 | T930A | decreasing interaction
3 | T930A;F932A | disrupting interaction

Variants of: B2
Conditions: with shan2_mouse Shank2, Q80Z38

Row | Variant | effect of a mutation on the interaction
4 | T930A;F932A | decreasing interaction
5 | T930A | decreasing interaction
6 | S920A | disrupting interaction

Variants of: B2
Conditions: with shan2_mouse Shank2, Q80Z38
Remark: another data set of the same source

Row | Variant | effect of a mutation on the interaction
7 | S920A;T930A;F932A | disrupting interaction
